Measurements published in PMC7581431.

Tests used:
[1] = target: Lip-NKD-HisC (human (identical sequence in mouse and human)) (UniProt Q969G9); experiment: aggregation and co-aggregation assay read by PAGE; purified proteins in 15 mM acetate, 150 mM NaCl, pH 5.0 mixed in different ratios; after 10 min 1 M Tris-HCl pH 8.0 added to 200 mM; after 20 min boiled 10 min in LDS sample buffer; PAGE under denaturing and reducing conditions
CK1ε = experiment: BioID proximity labeling (mass spectrometry); conditions: +Wnt3a
[2] = target: CELSR1 [human (endogenous in Flp-In-T-REx-293)]; experiment: BioID proximity labeling (mass spectrometry); conditions: +Wnt3a
[3] = target: Notch2 [human (endogenous in Flp-In-T-REx-293)]; experiment: BioID proximity labeling (mass spectrometry); conditions: +Wnt3a

Lip-NKD-HisC (human (identical sequence in mouse and human)), sequence (Q969G9 whole entry): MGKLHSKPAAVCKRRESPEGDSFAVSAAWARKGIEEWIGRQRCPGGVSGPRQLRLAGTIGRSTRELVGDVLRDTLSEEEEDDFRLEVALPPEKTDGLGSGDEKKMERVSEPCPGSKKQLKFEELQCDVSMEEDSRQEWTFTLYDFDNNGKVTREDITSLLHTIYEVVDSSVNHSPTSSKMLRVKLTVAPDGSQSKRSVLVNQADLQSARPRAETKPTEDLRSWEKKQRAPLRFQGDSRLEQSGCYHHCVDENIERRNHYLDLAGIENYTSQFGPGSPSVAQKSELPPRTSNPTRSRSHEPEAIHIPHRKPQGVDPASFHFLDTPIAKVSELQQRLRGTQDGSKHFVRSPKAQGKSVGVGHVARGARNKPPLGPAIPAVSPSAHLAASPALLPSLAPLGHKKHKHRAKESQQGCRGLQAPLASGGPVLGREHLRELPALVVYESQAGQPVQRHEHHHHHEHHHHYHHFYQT

Lip-NKD-HisC (from UniProt Q969G9 1-470) (domain or fragment)
stoichiometry N [1]: 10

MBP-Axin1-HisC (from UniProt O15169 1-862) (domain or fragment)
molecules per core (molecules per core) [1]: < 5

Nkd1-BirA* (from UniProt Q99MH6) G2A
response (unweighted spectral counts) (CK1ε): 8

Nkd1-BirA* mutant G2A [murine] / CELSR1 [human (endogenous in Flp-In-T-REx-293)] chain 1 G2A
response (unweighted spectral counts) [2]: 1

Nkd1-BirA* mutant G2A [murine] / Notch2 [human (endogenous in Flp-In-T-REx-293)] chain 1 G2A
response (unweighted spectral counts) [3]: 1
